# Source: the domain aggregation screens of Martell et al. (2025)
# Assay: soluble fraction after stress (log2 fold change); higher = more stays soluble; pooled small domains, quantitative proteomics
# Conditions: stress: pH 4
# Summary of the method: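 Pooled custom libraries of small protein domains were subjected to pH 4 and measured by high-throughput quantitative proteomics. The log2 fold change in soluble amount per domain is reported, higher values meaning more remained soluble. This is used as a measure of aggregation propensity.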
row,Sequence,soluble fraction (log2)
1,HMQVLSESDVEDIKAISGGDKAYDNLMEWAGSKLSKQDAKDYDDVLATGNKTAITFAVKALMAQYENAN,-1.05
2,HMGKPVTMELLIPYSQGSLVHRISEAGEVAKTEYQNDGTYMQVTFTPSAKDHALMQEVASYRI,0.0901
3,HMAFRLPNGYGTIRRLTGNRRKPYVALVNPTQVFDDEKGTSHYKYDLLGTFAEKIDAYNAVMQYHKSPGGL,-0.223
4,HMFLTPLEETRLAIEEVVIAKNIAIDLFPRESAIRKQQHELIYHYHLKGLTVGTEKNKRLRIFPRGY,-0.52
5,HMGDGYTYYYDDTVLALGFTKIGNDYYIFNTFSGKMYKDATMWVNDNPYGIKGGMHYFDASGKMFV,-0.439
6,HMSDTGQELHDALNMARRTLTILEEQAAGYTALTIPARLVLELEEKRKDVVRLETQIRSAATGTPG,0.00666
7,HMQTQVEVLVKYVLEDGTVYKEDKVSADIGAILDSGDLPMLSNDMKFIDDFLFYEVKESDNVIERKVAKLV,-1.41
8,HMNKRKQRINDLMDLIREQPALSIKNLAEMLNVSEMTIRRDMAYLKSNNLLNRAHGMNFLNS,0.132
9,HMNNFNVVVGKAIKNSFNTRENYITINAGKVLGIKTDMGVINDKGIVGIVEKTSKDFATIQSVLNIKS,0.22
10,HMNADTVIGKAGTVIEKIDNVAATGAVKIDGKVWTARSERDNITIDEGTLVKAMAIEGVKLIVEPVT,0.0947
11,HMKSAIGEEKAENFAFADLGMDPLSAEGVRTEFGFEQGQFVYKVYFTADGTEYEYWIKASDGSVVKKGMDL,-1.33
12,HMDATIGGFKITDSAIYSGVKNNVNAGVRGTYIDKDGQIAFGDSNSYLKYYKDTDGKWKLEVSASSVKF,-0.476
13,HMNSNKFANAAAVAVAEKPADSYNPLFIYGPSGVGKTHLLYAIANEIHKHHPDYNIVYIKGDQFTNELIN,0.201
14,HMAGTDLSERESEIAMLLLKGYPYKLIASRLYISESTVKSHVQNIYGKLGIHSRTELIEQFSAS,-0.966
15,HMRGPPQVLVDVELEDGRVGQIGVRNGDDATELAETFVRAFRLEQSFVGRLANVIQGKIRELLHSQ,-1.17
16,HMNFDVETGLPLDSRLVVSGLIQRDGINSLKRYEGMIVYVESEAKNYQLVGGISNTDWAELS,-0.426
17,HMNFAERIKELRKEKGITQIDLAEAVGLSKGTVAMWEVDKREANFDTLNKLSDYFQVSIDYLLGRSNDRS,-0.206
18,HMDTFNVIARQEIDGILYEYKIMTVEDYKNQSPENLAVIYENIKAVMEQYDLSEDDADAILVDLLG,-1.51
19,HMENMTLGQRIQALRKQHGLSQEGLGERLGVSRQAISRWEMDGAVPEVDKLIAMARLFGVSLNQLLGVE,-0.0911

row,Sequence,soluble fraction (log2)
1,HMEKIIFEISEEGKRLDLYIAERTELTRTRIQQLIKDGNINVNNKKSKPSYKVEKNDFIEMIIPDE,-0.49
2,HMAMKFQDIVRQKRKELGLTQEQAARRLGVSPAAVSKWESGQSLPDTPLFAPLARLLHTDLNTLLSFE,-0.34
3,HMSLSDDIAQTLRQLGFDRDVSETLANDVLPAMPTRQDVIDLLGTLGIEKHVAADFANFVVLN,-1.08
4,HMEEIPYGVISAKAGAAAYDYIKKSIELGIEKKIDGVATAPIQKEAIHMAGISYIGHTEMYQGIT,0.0683
5,HMSENEIDELRRRFAREAMALMERKGEEVSRTRLAAELSVARARIDAVFPEESDLLEAVTAEWFA,-0.799
6,HMEELELTIDGEMVGRIDKQLGHHFDQFSRSQIQHWIEDGHVLVNGKQVKPKYKLLVGDHVQIIPEEPQK,0.223
7,HMTNISDYILEEYYKNVYPNDLNTKRIVIPNKYEEYAGKYTYITIARMVTYEHDAKKALKVLHQQAT,-0.346
8,HMRLSAADLQSYLKGMDYPASRQDLIAHARGHNAPEEAVATLEQFSDRTYRSAADVSVEFGRE,0.309
9,HMGKLGENIKRIREGMGLSQRQFGELIGKSDSQIWSYENDRTDILASTLYKIAAVANVDFNNLMAGIIP,-1.35
10,HMGQDLSYYIKIVQNQQPVDPLTGEPKVLDYGEVIRQAQILQMLDTGDLDRDKAIGQLSMKDAL,-0.26
11,HMTPVFGEEETVLQAAVRGIISDTDQWTMEAEAKSMLNQLGFSDYEEKMAHMSGGQKKRVALVNALLTP,-0.555
12,HMNSRAERKEAAKEAIRNLLREGMTFEELTGPWLEKRFAEEPFNRGARSWQMLISEIKEEPEFQHL,-0.916
13,HMEILPAYRDIKKEALLGNINAEFKYVNLLLEHNYIEQAFNIIEDMKTRVDDNPEFEELKSRVADAYLMY,-1.48
14,HMRPQIAIDAIQALSLIMRTENKEDPTYLESRRVVSDAVAKRLSLNPTDLNRAWSRAPRDHQIAVLSALTQ,-0.184
15,HMRTANREKRIEASVKMMKAGYPVGYIIARVFMYEGWEEDYRQLLIYLSEKIPKDVSNPITFEVIS,-0.317
16,HMSEQLHALIDRLDDIPDDELKKNWPGTLRDLVDVISAELHRQGIEPAQAGMLARKVAAAQAGYMG,-0.742
17,HMLHVRSALMSELDGIEGIGEKRKRLLFDAFITRDAIAAATLEQLMAVKGMNRPSAEAVHKHFHG,0.203
18,HMHKYQVGETVYYTSPTFGRAAATGSYIVVKLLPSEGDDYQYRIKSSGEAFERVAKESQLDR,0.11
